Experimental data as given in patent publication US20210179728A1.
Where “and” joins values, the source holds several entries; their conditions need not be identical. Equal entries are not always repeated. One block for each substance: values may come before it.

Legend:
[1] = biological target: SIRPg on human CD3+ T cells (human) (UniProt Q9P1W8); test: flow cytometry on peripheral human CD3+ T cells; Exp 1 HV1 [B, table B]
[2] = biological target: SIRPg on human CD3+ T cells (human) (UniProt Q9P1W8); test: flow cytometry on peripheral human CD3+ T cells; Exp 1 HV2 [B, table B]
[3] = biological target: SIRPa on human monocytes (human) (UniProt P78324); test: flow cytometry on human monocytes v1/v1, PE anti-human Fc; MFI [B, panel B table]
[4] = biological target: SIRPa on human monocytes (human) (UniProt P78324); test: flow cytometry on human monocytes v1/v1, PE anti-human Fc; percent of stained monocytes [B, panel A table]
[5] = biological target: recombinant hSIRPa (Sino Biologicals, reference 11612-H08H) (human) (UniProt P78324); test: SPR (Biacore); SIRPa-His immobilized on CM5 chip, antibody injected
[6] = biological target: recombinant hSIRPa (Sino Biologicals, reference 10975-H08H) (human) (UniProt P78324); test: ELISA on immobilized recombinant hSIRPa, anti-mouse Fc detection; given as ED50
[7] = biological target: CD47 on human T cells, red blood cells and platelets (human) (UniProt Q08722); test: flow cytometry on peripheral human CD3+ T cells; Exp 1 HV1 [B, table B]
[8] = biological target: CD47 on human T cells, red blood cells and platelets (human) (UniProt Q08722); test: flow cytometry on peripheral human CD3+ T cells; Exp 1 HV2 [B, table B]

Chain of SIRPg on human CD3+ T cells (human) (Q9P1W8 29-387): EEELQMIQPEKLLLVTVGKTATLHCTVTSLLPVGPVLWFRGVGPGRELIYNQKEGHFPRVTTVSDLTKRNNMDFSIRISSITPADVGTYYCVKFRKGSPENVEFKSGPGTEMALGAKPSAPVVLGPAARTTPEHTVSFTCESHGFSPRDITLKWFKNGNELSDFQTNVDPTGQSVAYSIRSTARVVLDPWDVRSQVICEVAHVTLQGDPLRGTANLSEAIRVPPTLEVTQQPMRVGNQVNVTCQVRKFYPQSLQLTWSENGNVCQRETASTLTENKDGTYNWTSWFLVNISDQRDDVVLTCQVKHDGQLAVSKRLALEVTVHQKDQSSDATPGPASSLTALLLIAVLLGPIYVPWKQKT

- EC50 [3]: 0.378 µg/mL
- EC50 [4]: 0.26 µg/mL
Substance: Kwar23 (antibody)

- % of positive T-cells [2]: 0.016%
Substance: Mouse isotype Ctrl (antibody)

- % of positive T-cells [7]: 72.2%
- % of positive T-cells [8]: 80.1%
Substance: SIRPa-fc (Fc fusion)

Continued, substance first:

Substance: Ctrl Ab II (antibody)
- % of positive T-cells [1]: 0.45%
- % of positive T-cells [2]: 1.12%

Substance: LSB2.20 (antibody)
- % of positive T-cells [1]: 91.4%
- % of positive T-cells [2]: 98.4%

Substance: SE5A5 (antibody)
- Kd [5]: 38.7 nM
- koff [5]: 0.000949 s⁻¹
- kon [5]: 24500 M⁻¹ s⁻¹
- % of positive T-cells [1]: 3.72%
- % of positive T-cells [2]: 7.69%
- EC50 [6]: 0.16 nM and 0.024 µg/mL

Substance: SE7C2 (antibody)
- Kd [5]: 1670 nM
- koff [5]: 0.01 s⁻¹
- kon [5]: 5980 M⁻¹ s⁻¹
